Assay results as given in PMC11327358 (Nature Communications, 2024).

How the values were obtained:
[1] = target: S2A5-L1^A (S2A5 with alanine substitution in light chain region 26-30C) (mouse | human); test: BLI
[2] = target: GTV Gn head domain (residues 19-337) (Guertu virus (GTV), GenBank KT328592.1, UniProt A0A0S2Z2X2); test: ELISA

Molecule | fold decrease of binding affinity against WT S2A5 [1] | binding result [2]
SFTSV Gn head domain protein (residues 20-340, strain WCH97, genotype A) (domain or fragment) | 11 fold | –
mAb S2A5 (mouse variable regions on human IgG1) (antibody, V domains shown) VH: EVQLQQSGPELVKPGASVKVSCKASGYSFSDDNMYWVKQSHGKSLEWIGYIDPDNGGTSYNQKFKGKATLTVDKSSSTAFMHLNSLTSEDSAVYYCAREDYYGSRAMDYWGQGTSVTVSS VL: DIVLTQSPASLAVSLGQRATISCKASQSVDYAGDSYMNWYQQKPGQPPKLLIYAASNLESAIPARFSGSGSGTDFTLNIHPVQEEDAATYYCQQSYEDPRTFGGGTKLEIK | – | binds
mAb N1D10 (mouse variable regions on human IgG1) (antibody, V domains shown) VH: EVKLVESGGGLVQPGGSLKLSCAASGFTFSTYTMSWVRQTPEKRLEWVAYISNGGGSTYYPDTVKGRFTISRDNAKNTLYLQMSSLNSEDTAMYYCARSYGNFDVWGAGTTVTVSS VL: DVVMTQTPLSLPVSFGDQVSISCRSSQSLANSYGNTYLSWYLHKPGQSPQLLIYGISKRFSGVPDRFSGSGSGTDFTLKISTIKPEDLGMYYCLQGTHQPWTFGGGTKLEIK | – | binds
mAb B1G11 (mouse variable regions on human IgG1) (antibody, V domains shown) VH: EVKLMESGGGLVQPGDSLRLSCAISGFTFSDYYMSWVRQPPGKALEWLGFIRNKAKGYTTEYSASVKGRFTISRDNSQSILYLQMNTLRAEDSATYYCARDYRYDDEYYYAMDYWGQGTSVTVSS VL: GVVMTQTTSSLSASLGDRVTISCSASQGISNYLNWYQQKPDGTVKLLIYYTSILHSGVPSRFSGSGSGTDYSLTISNLEPEDIATYYCQQYSKFPRTFGGGTKLEIK | – | binds
